From patent publication US20130330358

Legend:
[1] = test system: T1, vIRF4^202-216 peptide (vif1); assay: competitive ITC: vIRF4^202-216 titrated into TRAF pre-titrated with p53^350-364 (competitor)
T1 sequence: SVWIPVNEGASTSGM

[2] = test system: T1, vIRF4^202-216 peptide (vif1); assay: competitive ITC: vIRF4^202-216 titrated into TRAF pre-titrated with p53^355-369 (competitor)
[3] = test system: T1, vIRF4^202-216 peptide (vif1); assay: competitive ITC: vIRF4^202-216 titrated into TRAF pre-titrated with MDM2^137-152 (competitor)

Sequence of HAUSP TRAF domain (HAUSP^62-205) (Q93009 62-205): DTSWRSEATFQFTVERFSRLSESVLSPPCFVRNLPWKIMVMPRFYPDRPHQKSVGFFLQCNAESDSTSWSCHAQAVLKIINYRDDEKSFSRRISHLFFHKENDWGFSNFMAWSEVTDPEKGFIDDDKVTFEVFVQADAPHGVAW

HAUSP TRAF domain (HAUSP^62-205)
Kobs (observed association constant) [1]: 4.42e+07 M⁻¹ | Kobs (observed association constant) [2]: 3.58e+07 M⁻¹ | Kobs (observed association constant) [3]: 1.09e+07 M⁻¹
